Results from patent US20260117202A1.
Where “and” joins values, the source holds several entries; their conditions need not be identical. Identical values can stand only once.

Experiments:
FHCS-1 (RSV strain A2) [1] = biological target: FHCS-1 (RSV strain A2) (UniProt P03420); assay: ELISA; F coated 5000 ng/ml; stored -80° C.
FHS-37 (RSV strain A2) = FHS-37 (RSV strain A2) (UniProt P03420); assay: sandwich ELISA, AM14 coated, supernatant 1:10
FHM-20 (RSV strain A2) = FHM-20 (RSV strain A2) (UniProt P03420); assay: sandwich ELISA, AM14 coated, supernatant 1:10
FHS-11 (RSV strain A2) = FHS-11 (RSV strain A2) (UniProt P03420); assay: sandwich ELISA, AM14 coated, supernatant 1:10
FHM-22 (RSV strain A2) = FHM-22 (RSV strain A2) (UniProt P03420); assay: sandwich ELISA, AM14 coated, supernatant 1:10
FHS-68 (RSV strain A2) = FHS-68 (RSV strain A2) (UniProt P03420); assay: sandwich ELISA, AM14 coated, supernatant 1:10
FHS-93 (RSV strain A2) = FHS-93 (RSV strain A2) (UniProt P03420); assay: sandwich ELISA, AM14 coated, supernatant 1:10
FHS-29 (RSV strain A2) = FHS-29 (RSV strain A2) (UniProt P03420); assay: sandwich ELISA, AM14 coated, supernatant 1:10
FHS-62 (RSV strain A2) = FHS-62 (RSV strain A2) (UniProt P03420); assay: sandwich ELISA, AM14 coated, supernatant 1:10
FHS-97 (RSV strain A2) = FHS-97 (RSV strain A2) (UniProt P03420); assay: sandwich ELISA, AM14 coated, supernatant 1:10
FHS-76 (RSV strain A2) = FHS-76 (RSV strain A2) (UniProt P03420); assay: sandwich ELISA, AM14 coated, supernatant 1:10
FHS-78 (RSV strain A2) = FHS-78 (RSV strain A2) (UniProt P03420); assay: sandwich ELISA, AM14 coated, supernatant 1:10
FHM-15 (RSV strain A2) = FHM-15 (RSV strain A2) (UniProt P03420); assay: sandwich ELISA, AM14 coated, supernatant 1:10
FHS-96 (RSV strain A2) = FHS-96 (RSV strain A2) (UniProt P03420); assay: sandwich ELISA, AM14 coated, supernatant 1:10
FHS-63 (RSV strain A2) = FHS-63 (RSV strain A2) (UniProt P03420); assay: sandwich ELISA, AM14 coated, supernatant 1:10
FHM-25 (RSV strain A2) = FHM-25 (RSV strain A2) (UniProt P03420); assay: sandwich ELISA, AM14 coated, supernatant 1:10
FHM-4 (RSV strain A2) = FHM-4 (RSV strain A2) (UniProt P03420); assay: sandwich ELISA, AM14 coated, supernatant 1:10
FHS-53 (RSV strain A2) = FHS-53 (RSV strain A2) (UniProt P03420); assay: sandwich ELISA, AM14 coated, supernatant 1:10
FHM-2 (RSV strain A2) = FHM-2 (RSV strain A2) (UniProt P03420); assay: sandwich ELISA, AM14 coated, supernatant 1:10
FHM-11 (RSV strain A2) = FHM-11 (RSV strain A2) (UniProt P03420); assay: sandwich ELISA, AM14 coated, supernatant 1:10
FHS-20 (RSV strain A2) = FHS-20 (RSV strain A2) (UniProt P03420); assay: sandwich ELISA, AM14 coated, supernatant 1:10
FHM-1 (RSV strain A2) = FHM-1 (RSV strain A2) (UniProt P03420); assay: sandwich ELISA, AM14 coated, supernatant 1:10
FHS-4 (RSV strain A2) = FHS-4 (RSV strain A2) (UniProt P03420); assay: sandwich ELISA, AM14 coated, supernatant 1:10
FHS-82 (RSV strain A2) = FHS-82 (RSV strain A2) (UniProt P03420); assay: sandwich ELISA, AM14 coated, supernatant 1:10
FHS-39 (RSV strain A2) = FHS-39 (RSV strain A2) (UniProt P03420); assay: sandwich ELISA, AM14 coated, supernatant 1:10
FHM-17 (RSV strain A2) = FHM-17 (RSV strain A2) (UniProt P03420); assay: sandwich ELISA, AM14 coated, supernatant 1:10
FHS-77 (RSV strain A2) = FHS-77 (RSV strain A2) (UniProt P03420); assay: sandwich ELISA, AM14 coated, supernatant 1:10
FHCS-1 (RSV strain A2) [2] = biological target: FHCS-1 (RSV strain A2) (UniProt P03420); assay: ELISA; F coated 312.5 ng/ml; stored -80° C.
FHCS-4 (RSV strain A2) [3] = biological target: FHCS-4 (RSV strain A2) (UniProt P03420); assay: ELISA; F coated 5000 ng/ml; stored 37° C. 4 W
FHCS-2 (RSV strain A2) [4] = biological target: FHCS-2 (RSV strain A2) (UniProt P03420); assay: ELISA; F coated 5000 ng/ml; stored 37° C. 4 W
FHCS-1 (RSV strain A2) [5] = biological target: FHCS-1 (RSV strain A2) (UniProt P03420); assay: ELISA; F coated 5000 ng/ml; stored 37° C. 4 W
FHCS-4 (RSV strain A2) [6] = biological target: FHCS-4 (RSV strain A2) (UniProt P03420); assay: ELISA; F coated 2500 ng/ml; stored 37° C. 2 W
FHCS-2 (RSV strain A2) [7] = biological target: FHCS-2 (RSV strain A2) (UniProt P03420); assay: ELISA; F coated 2500 ng/ml; stored 37° C. 2 W
FHCS-1 (RSV strain A2) [8] = biological target: FHCS-1 (RSV strain A2) (UniProt P03420); assay: ELISA; F coated 2500 ng/ml; stored 37° C. 2 W
FHCS-4 (RSV strain A2) [9] = biological target: FHCS-4 (RSV strain A2) (UniProt P03420); assay: ELISA; F coated 625 ng/ml; stored -80° C.
FHCS-2 (RSV strain A2) [10] = biological target: FHCS-2 (RSV strain A2) (UniProt P03420); assay: ELISA; F coated 625 ng/ml; stored -80° C.
FHCS-1 (RSV strain A2) [11] = biological target: FHCS-1 (RSV strain A2) (UniProt P03420); assay: ELISA; F coated 625 ng/ml; stored -80° C.
FHCS-4 (RSV strain A2) [12] = biological target: FHCS-4 (RSV strain A2) (UniProt P03420); assay: ELISA; F coated 156.3 ng/ml; stored -80° C.
FHCS-2 (RSV strain A2) [13] = biological target: FHCS-2 (RSV strain A2) (UniProt P03420); assay: ELISA; F coated 156.3 ng/ml; stored -80° C.
FHCS-1 (RSV strain A2) [14] = biological target: FHCS-1 (RSV strain A2) (UniProt P03420); assay: ELISA; F coated 156.3 ng/ml; stored -80° C.

**Q.** With AM14 monoclonal antibody as the substance, how does the OD value (FHCS-1 (RSV strain A2) [1]) read?
**A.** The OD value was 0.902 OD and 0.775 OD.

**Q.** And the OD value (FHS-37 (RSV strain A2))?
**A.** The OD value was 0.007 OD.

**Q.** What about the OD value (FHM-20 (RSV strain A2)) of the same substance?
**A.** Its OD value is 0.607 OD.

**Q.** What about the OD value (FHS-11 (RSV strain A2)) of the same substance?
**A.** Its OD value is 2.04 OD.

**Q.** And the OD value (FHM-22 (RSV strain A2))?
**A.** Its OD value is 1.98 OD.

**Q.** And the OD value (FHS-68 (RSV strain A2))?
**A.** Its OD value is 1.99 OD.

**Q.** And the OD value (FHS-93 (RSV strain A2))?
**A.** The OD value was 0.009 OD.

**Q.** What about the OD value (FHS-29 (RSV strain A2)) of the same substance?
**A.** Its OD value is 0.007 OD.

**Q.** What about the OD value (FHS-62 (RSV strain A2)) of the same substance?
**A.** The OD value was 0.01 OD.

**Q.** What about the OD value (FHS-97 (RSV strain A2)) of the same substance?
**A.** The OD value was 0.006 OD.

**Q.** And the OD value (FHS-76 (RSV strain A2))?
**A.** Its OD value is 0.821 OD.

**Q.** What about the OD value (FHS-78 (RSV strain A2)) of the same substance?
**A.** The OD value was 1.24 OD.

**Q.** And the OD value (FHM-15 (RSV strain A2))?
**A.** Its OD value is 1.5 OD.

**Q.** And the OD value (FHS-96 (RSV strain A2))?
**A.** The OD value was 0.011 OD.

**Q.** And the OD value (FHS-63 (RSV strain A2))?
**A.** Its OD value is 0.006 OD.

**Q.** And the OD value (FHM-25 (RSV strain A2))?
**A.** Its OD value is 2.42 OD.

**Q.** What about the OD value (FHM-4 (RSV strain A2)) of the same substance?
**A.** The OD value was 0.028 OD.

**Q.** What about the OD value (FHS-53 (RSV strain A2)) of the same substance?
**A.** Its OD value is 0.008 OD.

**Q.** What about the OD value (FHM-2 (RSV strain A2)) of the same substance?
**A.** Its OD value is 2.23 OD.

**Q.** And the OD value (FHM-11 (RSV strain A2))?
**A.** Its OD value is 0.006 OD.

**Q.** What about the OD value (FHS-20 (RSV strain A2)) of the same substance?
**A.** Its OD value is 0.009 OD.

**Q.** And the OD value (FHM-1 (RSV strain A2))?
**A.** Its OD value is 2.29 OD.

**Q.** What about the OD value (FHS-4 (RSV strain A2)) of the same substance?
**A.** Its OD value is 2.26 OD.

**Q.** And the OD value (FHS-82 (RSV strain A2))?
**A.** The OD value was 0.063 OD.

**Q.** And the OD value (FHS-39 (RSV strain A2))?
**A.** The OD value was 0.007 OD.

**Q.** And the OD value (FHM-17 (RSV strain A2))?
**A.** Its OD value is 0.006 OD.

**Q.** And the OD value (FHS-77 (RSV strain A2))?
**A.** Its OD value is 0.06 OD.

**Q.** And the OD value (FHCS-1 (RSV strain A2) [2])?
**A.** The OD value was 0.004 OD and 0.008 OD.

**Q.** What about the OD value (FHCS-4 (RSV strain A2) [3]) of the same substance?
**A.** Its OD value is 0.665 OD and 0.438 OD.

**Q.** What about the OD value (FHCS-2 (RSV strain A2) [4]) of the same substance?
**A.** The OD value was 1.95 OD and 1.48 OD.

**Q.** And the OD value (FHCS-1 (RSV strain A2) [5])?
**A.** The OD value was 1.17 OD and 1.33 OD.

**Q.** Synagis® (antibody) was tested. Which OD value (FHCS-4 (RSV strain A2) [6]) did it give?
**A.** The OD value was 1.46 OD and 1.58 OD.

**Q.** And the OD value (FHCS-2 (RSV strain A2) [7])?
**A.** The OD value was 1.6 OD and 1.85 OD.

**Q.** What about the OD value (FHCS-1 (RSV strain A2) [8]) of the same substance?
**A.** The OD value was 1.88 OD and 1.43 OD.

**Q.** And the OD value (FHCS-4 (RSV strain A2) [9])?
**A.** Its OD value is 0.11 OD.

**Q.** And the OD value (FHCS-2 (RSV strain A2) [10])?
**A.** The OD value was 0.409 OD and 0.307 OD.

**Q.** And the OD value (FHCS-1 (RSV strain A2) [11])?
**A.** Its OD value is 0.161 OD and 0.154 OD.

**Q.** And the OD value (FHCS-4 (RSV strain A2) [12])?
**A.** Its OD value is 0.016 OD.

**Q.** What about the OD value (FHCS-2 (RSV strain A2) [13]) of the same substance?
**A.** Its OD value is 0.043 OD and 0.038 OD.

**Q.** What about the OD value (FHCS-1 (RSV strain A2) [14]) of the same substance?
**A.** The OD value was 0.021 OD and 0.019 OD.
